This passage reports Ki, Km and kcat results from PMC8546341, “A Novel β-Glucosidase From Chryseobacterium scophthalmum 1433 for Efficient Rubusoside Production From Stevioside” (Frontiers in Microbiology, 2021).

The target of data set [1] is T1, CsBGL (Chryseobacterium scophthalmum, UniProt A0A8A3WQK4).
T1 construct: gene bgl
T1 sequence (A0A8A3WQK4 19-775): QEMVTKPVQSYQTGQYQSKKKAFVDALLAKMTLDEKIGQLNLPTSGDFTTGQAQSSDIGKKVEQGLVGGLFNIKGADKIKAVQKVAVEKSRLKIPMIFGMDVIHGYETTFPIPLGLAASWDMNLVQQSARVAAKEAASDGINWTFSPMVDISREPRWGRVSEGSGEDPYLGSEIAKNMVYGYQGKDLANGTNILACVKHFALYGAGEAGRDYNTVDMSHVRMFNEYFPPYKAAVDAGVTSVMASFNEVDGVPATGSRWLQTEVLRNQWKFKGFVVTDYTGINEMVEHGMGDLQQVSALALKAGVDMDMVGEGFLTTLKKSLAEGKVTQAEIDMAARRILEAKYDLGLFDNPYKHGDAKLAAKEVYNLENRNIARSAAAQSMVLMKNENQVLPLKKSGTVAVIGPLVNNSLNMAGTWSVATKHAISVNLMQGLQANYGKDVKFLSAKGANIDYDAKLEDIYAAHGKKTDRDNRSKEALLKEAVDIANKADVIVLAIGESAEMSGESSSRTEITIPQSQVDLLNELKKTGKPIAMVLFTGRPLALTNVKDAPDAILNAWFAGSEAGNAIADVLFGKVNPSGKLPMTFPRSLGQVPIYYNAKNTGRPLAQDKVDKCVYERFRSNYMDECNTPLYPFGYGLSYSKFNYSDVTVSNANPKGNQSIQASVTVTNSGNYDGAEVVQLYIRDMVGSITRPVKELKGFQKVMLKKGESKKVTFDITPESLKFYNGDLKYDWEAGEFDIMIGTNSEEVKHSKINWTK
The data set is described as follows: inhibition of pNP-β-Glc hydrolysis, p-nitrophenol at […] nm. The format is biochemical. The settings on record: substrate pNP-β-Glc 0.1–10 mM, glucose 0–80 mM, 50 mM sodium phosphate pH 7.4, 45 °C; mode not stated.

Substrate in data set [2]: O=[N+]([O-])c1ccc(O[C@@H]2O[C@H](CO)[C@@H](O)[C@H](O)[C@H]2O)cc1
The data set is described as follows: purified protein. Format: biochemical, Chryseobacterium scophthalmum. Conditions: 50 mM sodium phosphate pH 7.4, 45 °C.

Substrate in data set [3]: C=C1C[C@@]23CC[C@H]4[C@@](C)(CCC[C@@]4(C)C(=O)O[C@@H]4O[C@H](CO)[C@@H](O)[C@H](O)[C@H]4O)[C@@H]2CC[C@]1(O[C@@H]1O[C@H](CO)[C@@H](O)[C@H](O)[C@H]1O[C@@H]1O[C@H](CO)[C@@H](O)[C@H](O)[C@H]1O)C3
The data set is described as follows: initial velocity of stevioside hydrolysis. Format: biochemical, Chryseobacterium scophthalmum. The settings on record: 50 mM sodium phosphate pH 6.5, 47.5 °C.

Regarding `OC[C@H]1OC(O)[C@H](O)[C@@H](O)[C@@H]1O` (some centres unmarked) [glucose], the inhibitory constant (Ki) in data set [1] was determined as 16.4 mM.

B1: CsBGL (Chryseobacterium scophthalmum) (protein)
chain: QEMVTKPVQSYQTGQYQSKKKAFVDALLAKMTLDEKIGQLNLPTSGDFTTGQAQSSDIGKKVEQGLVGGLFNIKGADKIKAVQKVAVEKSRLKIPMIFGMDVIHGYETTFPIPLGLAASWDMNLVQQSARVAAKEAASDGINWTFSPMVDISREPRWGRVSEGSGEDPYLGSEIAKNMVYGYQGKDLANGTNILACVKHFALYGAGEAGRDYNTVDMSHVRMFNEYFPPYKAAVDAGVTSVMASFNEVDGVPATGSRWLQTEVLRNQWKFKGFVVTDYTGINEMVEHGMGDLQQVSALALKAGVDMDMVGEGFLTTLKKSLAEGKVTQAEIDMAARRILEAKYDLGLFDNPYKHGDAKLAAKEVYNLENRNIARSAAAQSMVLMKNENQVLPLKKSGTVAVIGPLVNNSLNMAGTWSVATKHAISVNLMQGLQANYGKDVKFLSAKGANIDYDAKLEDIYAAHGKKTDRDNRSKEALLKEAVDIANKADVIVLAIGESAEMSGESSSRTEITIPQSQVDLLNELKKTGKPIAMVLFTGRPLALTNVKDAPDAILNAWFAGSEAGNAIADVLFGKVNPSGKLPMTFPRSLGQVPIYYNAKNTGRPLAQDKVDKCVYERFRSNYMDECNTPLYPFGYGLSYSKFNYSDVTVSNANPKGNQSIQASVTVTNSGNYDGAEVVQLYIRDMVGSITRPVKELKGFQKVMLKKGESKKVTFDITPESLKFYNGDLKYDWEAGEFDIMIGTNSEEVKHSKINWTK
Regarding B1, the Michaelis constant (Km) in data set [2] was determined as 1620 µM; in data set [3] it was 1540 µM. Moreover, the turnover number (kcat) in data set [2] amounted to 16.77 s⁻¹; in data set [3], 248.59 s⁻¹.

In general, Ki refers to the dissociation constant of the complex between target and ligand, obtained from inhibition or displacement. Read a high Ki as a looser hold on the target. A word on the Km: it is the concentration of substrate that gives half-maximal velocity. As usually defined, the kcat is the number of substrate molecules converted per active site and unit of time at saturation.
